This passage reports stoichiometry N results from publication PMC6433865.

For assay [1], the target named is T1, C terminus of Hsc70-interacting protein (CHIP) (human), Q9UNE7.
T1 chain: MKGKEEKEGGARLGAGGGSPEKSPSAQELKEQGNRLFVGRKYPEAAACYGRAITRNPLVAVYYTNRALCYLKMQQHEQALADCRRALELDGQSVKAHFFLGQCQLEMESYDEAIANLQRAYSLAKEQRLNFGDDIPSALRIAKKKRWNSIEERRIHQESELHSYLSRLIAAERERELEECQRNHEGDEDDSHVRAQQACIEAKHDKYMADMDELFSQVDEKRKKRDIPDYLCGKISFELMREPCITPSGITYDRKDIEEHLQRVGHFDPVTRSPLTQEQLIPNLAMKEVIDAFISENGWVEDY
In words: cryo-EM structure; ternary complexes after GraFix, vitrified; Titan Krios 300 kV (Hsp70:p53-TMGST:CHIP, 15 Å) or Talos Arctica 200 kV (Hsp90:p53-TMGST:CHIP, 13 Å); atomic structures docked. The following applies: remark: other sources report otherwise.

In assay [2] the target is T1, C terminus of Hsc70-interacting protein …. In words: negative-stain electron microscopy, 3D reconstruction; complexes stabilised and isolated by GraFix (10-30% glycerol gradient, 0.15% glutaraldehyde), stained with 2% uranyl acetate, JEOL JEM1010 at 80 kV; atomic structures docked into 19-26 Å volumes. Conditions: remark: other sources report otherwise.

B1: C terminus of Hsc70-interacting protein (CHIP), Q9UNE7 1-303 (enzyme)
chain: MKGKEEKEGGARLGAGGGSPEKSPSAQELKEQGNRLFVGRKYPEAAACYGRAITRNPLVAVYYTNRALCYLKMQQHEQALADCRRALELDGQSVKAHFFLGQCQLEMESYDEAIANLQRAYSLAKEQRLNFGDDIPSALRIAKKKRWNSIEERRIHQESELHSYLSRLIAAERERELEECQRNHEGDEDDSHVRAQQACIEAKHDKYMADMDELFSQVDEKRKKRDIPDYLCGKISFELMREPCITPSGITYDRKDIEEHLQRVGHFDPVTRSPLTQEQLIPNLAMKEVIDAFISENGWVEDY
In the case of B1, the stoichiometry N in assay [1] and in assay [2] was 2 in each case.
